Patent publication US11873336 (TENEOBIO, dated 2024)
Substitutions are numbered along the chain they refer to.

Assays:
[1] = target: T1, human CD22 on CD22-positive Burkitt's lymphoma cells (Daudi, Raji, Ramos) (human, UniProt P20273 20-847); test: cell binding, Daudi cells
T1 construct: whole, on cells; also called CD22+ cells; CD22 positive cells
T1 sequence (looked up): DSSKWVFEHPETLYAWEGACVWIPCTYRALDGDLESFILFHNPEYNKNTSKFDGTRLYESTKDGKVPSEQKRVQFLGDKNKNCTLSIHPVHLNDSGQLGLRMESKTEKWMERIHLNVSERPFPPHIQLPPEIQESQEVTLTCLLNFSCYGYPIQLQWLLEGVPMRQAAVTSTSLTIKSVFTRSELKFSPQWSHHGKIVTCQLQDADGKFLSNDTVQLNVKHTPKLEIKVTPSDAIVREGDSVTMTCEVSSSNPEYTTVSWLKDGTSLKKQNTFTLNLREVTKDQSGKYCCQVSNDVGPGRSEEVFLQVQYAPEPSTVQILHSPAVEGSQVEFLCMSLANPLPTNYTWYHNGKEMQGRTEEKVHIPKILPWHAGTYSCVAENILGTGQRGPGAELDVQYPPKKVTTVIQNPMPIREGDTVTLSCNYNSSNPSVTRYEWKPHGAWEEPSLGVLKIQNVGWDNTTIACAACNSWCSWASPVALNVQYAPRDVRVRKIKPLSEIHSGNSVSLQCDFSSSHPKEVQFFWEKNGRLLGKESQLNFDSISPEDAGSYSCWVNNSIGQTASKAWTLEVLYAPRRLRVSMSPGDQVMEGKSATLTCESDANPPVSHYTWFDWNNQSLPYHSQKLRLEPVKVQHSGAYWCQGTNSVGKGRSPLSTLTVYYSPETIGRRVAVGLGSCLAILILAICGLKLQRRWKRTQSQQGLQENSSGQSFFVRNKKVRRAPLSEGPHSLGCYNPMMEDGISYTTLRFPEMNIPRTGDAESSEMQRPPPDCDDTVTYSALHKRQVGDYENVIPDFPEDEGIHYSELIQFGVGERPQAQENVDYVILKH
Description: Binding to CD22 positive cells was assessed by flow cytometry (Guava easyCyte 8HT, EMD Millipore) using the Daudi cell line (ATCC). Briefly, 100,000 target cells were stained with a dilution series of purified UniAbs™ for 30 minutes at 4° C. Following incubation, the cells were washed twice with flow cytometry buffer (1×PBS, 1% BSA, 0.1% NaN_3) and stained with goat F(ab')2 anti-human IgG conjugated to R-phycoerythrin (PE) (Southern Biotech, cat. #2042-09) to detect cell-bound antibodies. After a 20-minute incubation at 4° C., the cells were washed twice with flow cytometry buffer and then mean fluorescence intensity (MFI) was measured by flow cytometry. EC50 values were calculated using GraphPad Prism 7. Binding to *cynomolgus* CD22 positive cells was determined using the same protocol with the following modifications: the target cells were from CHO cells stably transfected to express the extracellular domain of *cynomolgus* CD22 and each antibody was tested at a single concentration (~1.7 µg/mL) so EC50 values were not calculated.

[2] = target: T2, human CD22 protein (recombinant CD22 extracellular domain) (human, UniProt P20273 20-687); test: ELISA on recombinant CD22 extracellular domain and/or cell binding
T2 construct: extracellular domain; also called SIGLEC-2
T2 sequence (looked up): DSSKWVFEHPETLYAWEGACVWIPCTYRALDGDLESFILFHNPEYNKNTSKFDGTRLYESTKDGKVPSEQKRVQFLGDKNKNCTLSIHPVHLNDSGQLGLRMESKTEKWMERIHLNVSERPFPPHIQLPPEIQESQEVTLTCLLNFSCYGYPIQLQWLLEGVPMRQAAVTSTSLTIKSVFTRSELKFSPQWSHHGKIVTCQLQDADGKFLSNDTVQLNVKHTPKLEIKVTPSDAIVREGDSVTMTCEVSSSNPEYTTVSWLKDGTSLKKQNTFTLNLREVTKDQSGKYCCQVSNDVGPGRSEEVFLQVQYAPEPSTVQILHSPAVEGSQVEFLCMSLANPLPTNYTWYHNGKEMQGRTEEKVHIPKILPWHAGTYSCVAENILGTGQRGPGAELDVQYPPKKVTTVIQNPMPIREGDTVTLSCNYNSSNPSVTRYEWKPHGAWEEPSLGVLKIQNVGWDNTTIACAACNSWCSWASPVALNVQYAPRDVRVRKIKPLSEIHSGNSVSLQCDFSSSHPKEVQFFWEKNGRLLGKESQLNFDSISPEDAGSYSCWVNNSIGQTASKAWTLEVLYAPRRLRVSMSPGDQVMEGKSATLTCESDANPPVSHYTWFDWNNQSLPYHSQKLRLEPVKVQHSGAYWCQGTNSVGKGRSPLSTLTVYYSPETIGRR

B1: anti-CD22 heavy chain-only antibody with the VH of SEQ ID NO: 39 (antibody, V domains shown)
VH: QLQLQESGPGLVKPSETLSLTCTVSGDSISSGDYYWGWIRQPPGKGLEWIGHIYYSGATYYNPSLKNRVTISVDTSKNQFSLKLSSVTAADTAVYYCTREDSSNWRSRGQGTLVTVSS
notes: Heavy chain-only antibody (UniAb), human IgG
B1: binds [1]; binds [2].

B2: anti-CD22 heavy chain-only antibody with the VH of SEQ ID NO: 38 (antibody, V domains shown)
VH: B1 VH with K77R, K83N
notes: as for B1
B2: binds [1]; binds [2].

B3: anti-CD22 heavy chain-only antibody with the VH of SEQ ID NO: 32 (antibody, V domains shown)
VH: B1 VH with K77R, K83N, N104S
notes: as for B1
B3: binds [1]; binds [2].

B4: anti-CD22 heavy chain-only antibody with the VH of SEQ ID NO: 33 (antibody, V domains shown)
VH: B1 VH with A58V, E100D
notes: as for B1
B4: binds [1]; binds [2].

B5: anti-CD22 heavy chain-only antibody with the VH of SEQ ID NO: 30 (antibody, V domains shown)
VH: B1 VH with E100D
notes: as for B1
B5: binds [1]; binds [2].

B6: anti-CD22 heavy chain-only antibody with the VH of SEQ ID NO: 57 (antibody, V domains shown)
VH: B1 VH with D27G, G32S, D33S, A58V, E100D
notes: as for B1
B6: binds [1]; binds [2].

B7: anti-CD22 heavy chain-only antibody with the VH of SEQ ID NO: 24 (antibody, V domains shown)
VH: B1 VH with A58V, N67S, K77R
notes: as for B1
B7: binds [1]; binds [2].

B8: anti-CD22 heavy chain-only antibody with the VH of SEQ ID NO: 44 (antibody, V domains shown)
VH: B1 VH with D27G, K66E, E100D
notes: as for B1
B8: binds [1]; binds [2].

B9: anti-CD22 heavy chain-only antibody with the VH of SEQ ID NO: 37 (antibody, V domains shown)
VH: B1 VH with A58V
notes: as for B1
B9: binds [1]; binds [2].

B10: anti-CD22 heavy chain-only antibody with the VH of SEQ ID NO: 51 (antibody, V domains shown)
VH: B1 VH with D27G, G32S, D33S, H52S, A58S, N67S, E100D
notes: as for B1
B10: binds [1]; binds [2].

B11: anti-CD22 heavy chain-only antibody with the VH of SEQ ID NO: 28 (antibody, V domains shown)
VH: B1 VH with K77R, K83N, E100D
notes: as for B1
B11: binds [1]; binds [2].

B12: anti-CD22 heavy chain-only antibody with the VH of SEQ ID NO: 31 (antibody, V domains shown)
VH: B1 VH with D33G, E100D
notes: as for B1
B12: binds [1]; binds [2].

B13: anti-CD22 heavy chain-only antibody with the VH of SEQ ID NO: 34 (antibody, V domains shown)
VH: B1 VH with A58V, K77R
notes: as for B1
B13: binds [1]; binds [2].

B14: anti-CD22 heavy chain-only antibody with the VH of SEQ ID NO: 26 (antibody, V domains shown)
VH: B1 VH with A58V, N104S
notes: as for B1
B14: binds [1]; binds [2].

B15: anti-CD22 heavy chain-only antibody with the VH of SEQ ID NO: 52 (antibody, V domains shown)
VH: B1 VH with H52S, A58S, N67S
notes: as for B1
B15: binds [1]; binds [2].

B16: anti-CD22 heavy chain-only antibody with the VH of SEQ ID NO: 56 (antibody, V domains shown)
VH: B1 VH with D27G, G32S, D33S, A58V, V94A, E100D
notes: as for B1
B16: binds [1]; binds [2].

B17: anti-CD22 heavy chain-only antibody with the VH of SEQ ID NO: 40 (antibody, V domains shown)
VH: B1 VH with N104S
notes: as for B1
B17: binds [1]; binds [2].

B18: anti-CD22 heavy chain-only antibody with the VH of SEQ ID NO: 42 (antibody, V domains shown)
VH: B1 VH with H52S, E100D
notes: as for B1
B18: binds [1]; binds [2].

B19: anti-CD22 heavy chain-only antibody with the VH of SEQ ID NO: 54 (antibody, V domains shown)
VH: B1 VH with D27G, K77R
notes: as for B1
B19: binds [1]; binds [2].

B20: anti-CD22 heavy chain-only antibody with the VH of SEQ ID NO: 53 (antibody, V domains shown)
VH: B1 VH with H52S, S56T, A58S, N67S
notes: as for B1
B20: binds [1]; binds [2].

B21: anti-CD22 heavy chain-only antibody with the VH of SEQ ID NO: 45 (antibody, V domains shown)
VH: B1 VH with H52S, A58S, N67S, N104S
notes: as for B1
B21: binds [1]; binds [2].

B22: anti-CD22 heavy chain-only antibody with the VH of SEQ ID NO: 27 (antibody, V domains shown)
VH: B1 VH with A58V, K77R, K83N, N104S
notes: as for B1
B22: binds [1]; binds [2].

B23: anti-CD22 heavy chain-only antibody with the VH of SEQ ID NO: 49 (antibody, V domains shown)
VH: B1 VH with H52N
notes: as for B1
B23: binds [1]; binds [2].

B24: anti-CD22 heavy chain-only antibody with the VH of SEQ ID NO: 50 (antibody, V domains shown)
VH: B1 VH with H52N, E100D
notes: as for B1
B24: binds [1]; binds [2].

B25: anti-CD22 heavy chain-only antibody with the VH of SEQ ID NO: 25 (antibody, V domains shown)
VH: B1 VH with K66E, E100D
notes: as for B1
B25: binds [1]; binds [2].

B26: anti-CD22 heavy chain-only antibody with the VH of SEQ ID NO: 29 (antibody, V domains shown)
VH: B1 VH with K77R, E100D
notes: as for B1
B26: binds [1]; binds [2].

B27: anti-CD22 heavy chain-only antibody with the VH of SEQ ID NO: 36 (antibody, V domains shown)
VH: B1 VH with K77R, N104S
notes: as for B1
B27: binds [1]; binds [2].

B28: anti-CD22 heavy chain-only antibody with the VH of SEQ ID NO: 47 (antibody, V domains shown)
VH: B1 VH with D33G, H52S, A58S, N104S
notes: as for B1
B28: binds [1]; binds [2].

B29: anti-CD22 heavy chain-only antibody with the VH of SEQ ID NO: 48 (antibody, V domains shown)
VH: B1 VH with Q41H, N104S
notes: as for B1
B29: binds [1]; binds [2].

B30: anti-CD22 heavy chain-only antibody with the VH of SEQ ID NO: 58 (antibody, V domains shown)
VH: B1 VH with D27G, G32S, D33S, H52S, A58S, N67S, K77R, K83N, N104S
notes: as for B1
B30: binds [1]; binds [2].

B31: anti-CD22 heavy chain-only antibody with the VH of SEQ ID NO: 43 (antibody, V domains shown)
VH: B1 VH with D27G, K77R, E100D
notes: as for B1
B31: binds [1]; binds [2].

B32: anti-CD22 heavy chain-only antibody with the VH of SEQ ID NO: 35 (antibody, V domains shown)
VH: B1 VH with K66E, N104S
notes: as for B1
B32: binds [1]; binds [2].

B33: anti-CD22 heavy chain-only antibody with the VH of SEQ ID NO: 46 (antibody, V domains shown)
VH: B1 VH with H52N, N104S
notes: as for B1
B33: binds [1]; binds [2].

B34: anti-CD22 heavy chain-only antibody with the VH of SEQ ID NO: 41 (antibody, V domains shown)
VH: B1 VH with K77R
notes: as for B1
B34: binds [1]; binds [2].
